T1: Myogenin;E47 (Rattus norvegicus;Mus musculus, UniProt P20428;P15806-2 1-287;1-648, |)
T1 sequence 1: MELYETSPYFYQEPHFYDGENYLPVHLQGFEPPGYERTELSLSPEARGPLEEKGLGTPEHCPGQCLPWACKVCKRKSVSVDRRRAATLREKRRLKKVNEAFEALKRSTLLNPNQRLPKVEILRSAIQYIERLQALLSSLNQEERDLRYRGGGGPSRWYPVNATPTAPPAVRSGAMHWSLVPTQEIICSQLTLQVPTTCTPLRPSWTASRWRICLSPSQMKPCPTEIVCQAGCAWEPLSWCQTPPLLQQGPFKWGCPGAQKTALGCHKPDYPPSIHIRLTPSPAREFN
T1 sequence 2: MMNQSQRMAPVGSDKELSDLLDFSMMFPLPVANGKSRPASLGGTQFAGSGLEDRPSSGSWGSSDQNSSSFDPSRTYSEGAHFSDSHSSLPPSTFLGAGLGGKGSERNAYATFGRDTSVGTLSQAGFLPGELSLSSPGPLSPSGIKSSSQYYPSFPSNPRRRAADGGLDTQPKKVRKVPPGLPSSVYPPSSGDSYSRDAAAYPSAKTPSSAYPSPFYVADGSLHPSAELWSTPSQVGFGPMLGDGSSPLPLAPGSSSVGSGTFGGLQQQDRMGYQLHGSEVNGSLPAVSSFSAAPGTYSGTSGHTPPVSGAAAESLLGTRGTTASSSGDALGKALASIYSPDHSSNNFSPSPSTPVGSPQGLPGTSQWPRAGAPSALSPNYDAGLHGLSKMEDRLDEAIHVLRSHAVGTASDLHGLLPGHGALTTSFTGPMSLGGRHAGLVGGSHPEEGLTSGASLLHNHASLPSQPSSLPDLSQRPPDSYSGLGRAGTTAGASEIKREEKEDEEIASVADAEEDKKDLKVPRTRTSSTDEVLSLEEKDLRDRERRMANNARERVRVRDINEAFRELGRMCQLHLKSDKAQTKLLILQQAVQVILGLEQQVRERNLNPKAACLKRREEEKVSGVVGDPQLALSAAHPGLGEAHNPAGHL

T2: Myogenin/MyoDb chimera (Rattus norvegicus; Mus musculus basic …, UniProt P20428 1-73+P10085:102-121+94-287, internal_change)
T2 sequence: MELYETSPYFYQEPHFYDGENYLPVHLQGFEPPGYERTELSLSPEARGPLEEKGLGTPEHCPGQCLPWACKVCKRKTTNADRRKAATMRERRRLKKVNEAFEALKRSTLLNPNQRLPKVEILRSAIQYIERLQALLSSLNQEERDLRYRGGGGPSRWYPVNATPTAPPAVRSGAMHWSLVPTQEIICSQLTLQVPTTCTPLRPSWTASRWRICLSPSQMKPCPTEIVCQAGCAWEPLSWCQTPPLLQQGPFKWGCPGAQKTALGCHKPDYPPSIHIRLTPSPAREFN

T3: MRF4 (Rattus norvegicus, UniProt P19335 1-242)
T3 sequence: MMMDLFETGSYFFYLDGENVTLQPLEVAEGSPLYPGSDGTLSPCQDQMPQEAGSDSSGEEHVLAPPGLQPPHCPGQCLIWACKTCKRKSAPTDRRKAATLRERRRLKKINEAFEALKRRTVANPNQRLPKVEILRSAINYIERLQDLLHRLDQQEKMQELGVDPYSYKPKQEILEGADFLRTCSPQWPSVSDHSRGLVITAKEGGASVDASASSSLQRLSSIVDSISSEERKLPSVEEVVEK

T4: MRF4;E47 (Rattus norvegicus;Mus musculus, UniProt P19335;P15806-2 1-242;1-648, |)
T4 sequence 1: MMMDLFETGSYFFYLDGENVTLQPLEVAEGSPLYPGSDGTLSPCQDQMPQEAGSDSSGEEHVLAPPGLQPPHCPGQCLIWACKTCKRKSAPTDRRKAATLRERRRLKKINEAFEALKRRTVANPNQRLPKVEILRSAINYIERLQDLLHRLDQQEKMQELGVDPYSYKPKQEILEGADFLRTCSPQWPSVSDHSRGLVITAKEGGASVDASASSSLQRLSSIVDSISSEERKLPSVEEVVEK
T4 sequence 2: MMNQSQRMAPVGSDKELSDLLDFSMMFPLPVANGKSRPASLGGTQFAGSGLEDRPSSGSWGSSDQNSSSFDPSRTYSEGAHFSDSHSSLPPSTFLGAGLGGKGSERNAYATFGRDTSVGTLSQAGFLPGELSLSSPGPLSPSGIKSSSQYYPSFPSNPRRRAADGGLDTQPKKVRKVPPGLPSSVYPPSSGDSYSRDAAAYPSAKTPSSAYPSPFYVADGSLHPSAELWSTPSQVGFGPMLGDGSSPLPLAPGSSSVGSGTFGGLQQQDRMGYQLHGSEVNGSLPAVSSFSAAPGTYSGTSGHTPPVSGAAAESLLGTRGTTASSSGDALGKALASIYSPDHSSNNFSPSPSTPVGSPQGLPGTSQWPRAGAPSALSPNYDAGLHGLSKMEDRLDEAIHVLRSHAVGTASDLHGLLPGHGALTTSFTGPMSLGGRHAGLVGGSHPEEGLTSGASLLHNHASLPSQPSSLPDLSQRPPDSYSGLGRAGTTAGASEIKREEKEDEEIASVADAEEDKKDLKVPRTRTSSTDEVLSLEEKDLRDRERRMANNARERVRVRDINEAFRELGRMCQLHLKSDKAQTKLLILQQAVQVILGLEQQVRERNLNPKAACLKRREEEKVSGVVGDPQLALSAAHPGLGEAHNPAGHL

T5: Myogenin (Rattus norvegicus, UniProt P20428 1-287)
T5 sequence: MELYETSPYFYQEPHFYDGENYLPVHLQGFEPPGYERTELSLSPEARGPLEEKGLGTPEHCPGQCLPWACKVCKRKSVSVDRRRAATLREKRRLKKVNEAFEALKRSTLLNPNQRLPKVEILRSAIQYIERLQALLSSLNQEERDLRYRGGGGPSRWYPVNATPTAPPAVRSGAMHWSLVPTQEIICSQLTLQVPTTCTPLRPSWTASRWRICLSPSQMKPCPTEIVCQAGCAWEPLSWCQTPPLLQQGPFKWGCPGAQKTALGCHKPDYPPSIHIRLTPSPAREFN

T6: mut-Myogenin (Rattus norvegicus, UniProt P20428 1-287, R84K;K91R)
T6 sequence: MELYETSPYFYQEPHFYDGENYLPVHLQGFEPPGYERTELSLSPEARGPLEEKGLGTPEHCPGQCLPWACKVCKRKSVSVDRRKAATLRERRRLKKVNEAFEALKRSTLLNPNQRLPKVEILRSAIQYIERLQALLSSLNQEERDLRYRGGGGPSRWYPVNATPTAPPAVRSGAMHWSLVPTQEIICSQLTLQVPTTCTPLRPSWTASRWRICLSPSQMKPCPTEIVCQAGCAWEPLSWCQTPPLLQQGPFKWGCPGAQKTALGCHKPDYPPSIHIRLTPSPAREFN


Legend:
Assay in all cases: EMSA
Myogenin;E47 [1] = biological target: T1, Myogenin;E47
MyoD = MyoD (Mus musculus, UniProt P10085 1-318)
Myogenin/MyoDb chimera = biological target: T2, Myogenin/MyoDb chimera
MyoD;E47 [2] = biological target: T7, MyoD;E47 (Mus musculus;Mus musculus, UniProt P10085;P15806-2 1-318;1-648, |)
MyoD/Myogeninb chimera = MyoD/Myogeninb chimera (Mus musculus; Rattus norvegicus basic …, UniProt P10085 1-101+P20428:74-93+122-318, internal_change)
MRF4 = biological target: T3, MRF4
MRF4;E47 = biological target: T4, MRF4;E47
Myogenin = biological target: T5, Myogenin
mut-Myogenin = biological target: T6, mut-Myogenin
Myogenin;E47 [3] = biological target: T1, Myogenin;E47; remark: listed apart in the source
MyoD;E47 [4] = biological target: T7, MyoD;E47; remark: listed apart in the source

| Binder | Kd (Myogenin;E47 [1]) | Kd (MyoD) | Kd (Myogenin/MyoDb chimera) | Kd (MyoD;E47 [2]) | Kd (MyoD/Myogeninb chimera) | Kd (MRF4) | Kd (MRF4;E47) | Kd (Myogenin) | binding result (mut-Myogenin) | binding result (MRF4) | binding signal (Myogenin;E47 [3]) | binding signal (MyoD;E47 [4]) |
| --- | --- | --- | --- | --- | --- | --- | --- | --- | --- | --- | --- | --- |
| CATGGGGGCGGGAAGGGGCGGGGTCT (structured_DNA) [G'2 integrin DNA] | 8.5 ± 2 nM | 4.4 ± 2.5 nM | 7.1 ± 1.9 nM | 11.2 ± 4.3 nM | 6 ± 3.1 nM | 5.3 ± 1.3 nM | 19.5 ± 2.7 nM | 30 ± 8 nM | binds |  |  |  |
| CTGAGGAGGGGCTGGAGGGACCAC (structured_DNA) [G'2 sMtCK DNA] |  |  |  |  |  |  |  |  |  | binds | 128 fold weaker than E-box | 15 fold weaker than E-box |
| E-box DNA (dsDNA) DNA 1: TCGATCCCCCAACACCTGCTGCCTGA DNA 2: TCAGGCAGCAGGTGTTGGGGGACGA | 0.2 ± 0.1 nM | 91.8 ± 1.6 nM |  | 1.7 ± 0.6 nM |  | 21.3 ± 11 nM | 0.2 ± 0.1 nM | 25.4 ± 11 nM |  |  |  |  |

Reference: article PMC2475631
